Laboratory results: PMC10909901

Tests used:
[1] = target: AtWRKY22-YFP (Arabidopsis thaliana) (UniProt O04609); test: FRET or BRET
[2] = target: RRS1-R-YFP (Arabidopsis thaliana) (UniProt C4B7M5); test: FRET or BRET
Chain of UniProt C4B7M5 (C4B7M5 whole entry): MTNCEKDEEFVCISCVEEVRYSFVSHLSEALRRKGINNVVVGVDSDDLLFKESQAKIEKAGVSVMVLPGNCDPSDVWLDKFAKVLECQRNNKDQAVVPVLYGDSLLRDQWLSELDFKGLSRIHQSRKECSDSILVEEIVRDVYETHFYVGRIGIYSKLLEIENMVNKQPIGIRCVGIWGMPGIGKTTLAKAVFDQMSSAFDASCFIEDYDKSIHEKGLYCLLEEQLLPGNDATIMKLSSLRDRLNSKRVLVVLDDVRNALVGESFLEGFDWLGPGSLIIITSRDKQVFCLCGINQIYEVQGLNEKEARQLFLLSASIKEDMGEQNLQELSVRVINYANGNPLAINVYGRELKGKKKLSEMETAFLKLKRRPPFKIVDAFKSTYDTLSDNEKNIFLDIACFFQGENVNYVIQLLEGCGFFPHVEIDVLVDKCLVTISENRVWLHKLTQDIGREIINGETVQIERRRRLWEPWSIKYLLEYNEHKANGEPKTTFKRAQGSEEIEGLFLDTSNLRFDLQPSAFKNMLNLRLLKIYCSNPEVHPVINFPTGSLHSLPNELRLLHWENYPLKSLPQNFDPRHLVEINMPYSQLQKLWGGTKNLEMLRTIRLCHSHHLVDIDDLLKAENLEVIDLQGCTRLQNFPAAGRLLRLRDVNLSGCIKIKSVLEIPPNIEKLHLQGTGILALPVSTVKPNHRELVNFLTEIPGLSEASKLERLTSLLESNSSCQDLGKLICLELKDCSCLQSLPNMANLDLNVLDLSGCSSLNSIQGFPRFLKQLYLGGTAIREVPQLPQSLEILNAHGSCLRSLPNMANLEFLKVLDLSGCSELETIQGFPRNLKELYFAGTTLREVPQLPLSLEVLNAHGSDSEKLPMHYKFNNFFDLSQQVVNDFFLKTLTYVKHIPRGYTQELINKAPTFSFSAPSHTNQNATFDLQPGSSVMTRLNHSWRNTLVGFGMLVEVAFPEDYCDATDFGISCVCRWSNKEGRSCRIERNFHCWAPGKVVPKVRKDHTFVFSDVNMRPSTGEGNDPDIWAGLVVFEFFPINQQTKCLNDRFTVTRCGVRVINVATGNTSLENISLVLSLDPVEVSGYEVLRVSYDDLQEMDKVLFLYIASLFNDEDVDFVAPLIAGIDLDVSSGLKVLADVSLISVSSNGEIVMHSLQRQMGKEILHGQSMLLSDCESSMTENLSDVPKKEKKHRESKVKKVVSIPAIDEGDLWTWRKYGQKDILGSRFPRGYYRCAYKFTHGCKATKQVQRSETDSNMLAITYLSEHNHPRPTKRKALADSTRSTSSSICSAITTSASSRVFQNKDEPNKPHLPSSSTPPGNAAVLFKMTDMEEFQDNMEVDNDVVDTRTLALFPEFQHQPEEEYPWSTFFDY

Chain of UniProt O04609 (O04609 whole entry): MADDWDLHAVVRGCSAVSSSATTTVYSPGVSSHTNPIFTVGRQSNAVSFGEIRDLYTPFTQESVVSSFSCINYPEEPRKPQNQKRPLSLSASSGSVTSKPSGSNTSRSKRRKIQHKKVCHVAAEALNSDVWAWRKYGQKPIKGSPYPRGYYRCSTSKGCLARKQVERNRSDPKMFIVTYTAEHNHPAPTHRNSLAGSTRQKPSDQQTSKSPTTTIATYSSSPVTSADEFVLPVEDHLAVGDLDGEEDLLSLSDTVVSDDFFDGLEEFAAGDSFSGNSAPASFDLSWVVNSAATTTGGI

## XopJ6_(CN06)-CFP (natural protein)
[1]
  FRET efficiency E: 9.49%
  mean CFP donor lifetime T in the presence of the acceptor: 3.48 ns
  Δt (decrease of donor lifetime): 365 ps
[2]
  FRET efficiency E: 15%
  mean CFP donor lifetime T in the presence of the acceptor: 3.27 ns
  Δt (decrease of donor lifetime): 578 ps

## XopJ6^C409A-CFP (natural protein)
[1]
  FRET efficiency E: 9.67%
  mean CFP donor lifetime T in the presence of the acceptor: 3.36 ns
[2]
  FRET efficiency E: 12.1%
  mean CFP donor lifetime T in the presence of the acceptor: 3.27 ns
  Δt (decrease of donor lifetime): 452 ps
